Experimental data from the supplement of paper PMC11780869.

Tested on: Bacillus subtilis
Assay: cleaved RNA product abundance (RNA/gDNA barcode ratio) relative to median wild-type variant (ratio to wild type); higher = more accumulation of the downstream cleavage product
Procedure: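 MPRA in B. subtilis. Mutagenized RNase Y cleavage-site regions (9% mutation rate) were inserted into a barcoded reporter mRNA (truncated aprE or tetM). Cells were grown in LB at 37°C to OD600 0.3. The cleaved RNA isoform was gel-purified and its barcodes counted; the RNA:gDNA barcode ratio was normalised to the median wild-type variant, and the median over barcodes is reported per variant. The printed sequence is the variable window only; the reporter flanks are not printed.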

[1] = experiment (reporter, strain, medium): exp 4a: truncated aprE reporter, strain BJT201 with 2% xylose (RNase J1 expressed), cleavage site: cggR-gapA (positions -7 to +36 mutated)
[2] = experiment (reporter, strain, medium): exp 8a: truncated aprE reporter, strain BJT201 with 2% xylose (RNase J1 expressed), cleavage site: glnRA (positions -5 to +31 mutated)
[3] = experiment (reporter, strain, medium): exp 2b: truncated aprE reporter, strain BJT200, cleavage site: cggR-gapA (positions -7 to +36 mutated)
[4] = experiment (reporter, strain, medium): exp 6: tetM reporter, strain 168, cleavage site: cggR-gapA (positions -7 to +36 mutated)

For “ACAGACGAAGGAGCCGCAAAGAAGTTATGAAGGGATGTATAATCCCTCAATATAAATATCTCTCACTTATTTAAA”, the “cleaved RNA product abundance” value [1] was 0.311.
In the case of “CGACATGTCCCGCTTCTTTCATTAATCCGTTTGCAACTGTTTTGATATATACATTTACCTTTTAAGAGGAGGAAT”, the “cleaved RNA product abundance” value [2] is reported as 0.421.
In the case of “ACAGACGAAGGAGCCGCAAAGAGGTTATTAAGGGATGAATAATCCGTCAATATAAATATCTCTCACTTATTTAAA”, the “cleaved RNA product abundance” value [1] is reported as 0.296.
For “CGACATGTCCCGCTTCTTTCATTAATCCATTAGAAACTGTTTTGCTATATAGATTTACCTTTTAAGAGGAGGAAT”, the “cleaved RNA product abundance” value [2] was 0.302.
For “ACAGACGAAGGAGCCGCAAAGAAGTTACTAAGGGATGAATAATCCCTCAAAATAAATATCTCTCACTTATTTAAA”, the “cleaved RNA product abundance” value [1] was 0.288.
For “ACAGACGAAGGAGCCGCAAAGAAGTTATTAAGGGATAAATAATGCCTCAATATAAATATCTCTCACTTATTTAAA”, the “cleaved RNA product abundance” value [1] was 0.0991.
“ACAGACGAAGGAGCCGCAAAGAAGTTATTAAGGGATGAATAATCCCTCAATATACATATCTCTCACTTATTTAAA” was tested, and the “cleaved RNA product abundance” value [3] was 0.933, the “cleaved RNA product abundance” value [1] was 0.838 and the “cleaved RNA product abundance” value [4] was 0.498.
“ACAGACGAAGGAGCCGCAAAGAAGTTATTAAGGGAAGAATTATCCCTCAATATAAATATCTCTCACTTATTTAAA” was tested, and the “cleaved RNA product abundance” value [1] was 0.771.
With “ACAGACGAAGGAGCCGCAAAGAAGTTATTAATGGATGAATAATCCCTCAGTATAAATATCTCTCACTTATTTAAA” the “cleaved RNA product abundance” value [3] was 0.0853 and the “cleaved RNA product abundance” value [1] was 0.0629.
“ACAGACGAAGGAGCCGCAAAGAAGTTATTAAGGGATGAAAAATCCGTCAATATAAATATCTCTCACTTATTTAAA” was tested, and the “cleaved RNA product abundance” value [1] was 0.355.
In the case of “CGACATGTCCCGCTTCTTTCATTAATCAGTTAGCATCTGTTTTGCTATATACATTTACCTTTTAAGAGGAGGAAT”, the “cleaved RNA product abundance” value [2] is reported as 0.725.
In the case of “ACAGACGAAGGAGCCGCAAAGAAGTTATTAAGGGATAAACAATCCCTCAATATAAATATCTCTCACTTATTTAAA”, the “cleaved RNA product abundance” value [3] is reported as 0.787 and the “cleaved RNA product abundance” value [1] is reported as 0.798.
“ACAGACGAAGGAGCCGCAAAGAATTTATTAAGGGATGAATAATCCCTCAATATATATATCTCTCACTTATTTAAA” was tested, and the “cleaved RNA product abundance” value [3] was 0.649 and the “cleaved RNA product abundance” value [1] was 0.46.
With “CGACATGTCCCGCTTCTTTCATTAATTCGTTAGCAACTGTTATGCTATATACATTTACCTTTTAAGAGGAGGAAT” the “cleaved RNA product abundance” value [2] was 1.05.
With “ACAGACGAAGGAGCCGCAAAGACGTTATTAAAGGATGAATAATCCCTCAATATAAATATCTCTCACTTATTTAAA” the “cleaved RNA product abundance” value [1] was 0.181.
With “CGACATGTCCCGCTTCTTTCATTAATCCGTTAGCCACTGTTTTGCTATATACAGTTACCTTTTAAGAGGAGGAAT” the “cleaved RNA product abundance” value [2] was 0.244.
With “ACAGACGAAGGAGCCGCAAAGAAGTTATTAAGGGACGAATAGTCCCTCAATATAAATATCTCTCACTTATTTAAA” the “cleaved RNA product abundance” value [3] was 0.905.
In the case of “ACAGACGAAGGAGCCGCAAAGAAGTTATTATGGGATGAATAATCCCTCAATATAAATACCTCTCACTTATTTAAA”, the “cleaved RNA product abundance” value [3] is reported as 0.348 and the “cleaved RNA product abundance” value [1] is reported as 0.44.
In the case of “ACAGACGAAGGAGCCGCAAAAAAGTTATTAAGGGATGACTAATCCCTCAATATAAATATCTCTCACTTATTTAAA”, the “cleaved RNA product abundance” value [3] is reported as 0.504 and the “cleaved RNA product abundance” value [1] is reported as 0.61.
“ACAGACGAAGGAGCCGCAAACAAGGTATTAAGGGATGAATAATCCCTCAATATAAATATCTCTCACTTATTTAAA” was tested, and the “cleaved RNA product abundance” value [1] was 1.23.
For “CGACATGTCCCGCTTCTTTCATTAATCCGTTAGCAACTGTTTTGCTATAAACCTTTACCTTTTAAGAGGAGGAAT”, the “cleaved RNA product abundance” value [2] was 0.163.
With “ACAGACGAAGGAGCCGCAAAGAAGTTATTAAGGGATGAATAATCTCTCATTATAAATATCTCTCACTTATTTAAA” the “cleaved RNA product abundance” value [1] was 0.351.
With “CGACATGTCCCGCTTCTTTCATTAAACCGTTACCAACTGTTTTGCTATATACATTTACCTTTTAAGAGGAGGAAT” the “cleaved RNA product abundance” value [2] was 0.189.
For “CGACATGTCCCGCTTCTTTCATTAATCCGTTAACTACTGTTTTGCTATATACATTTACCTTTTAAGAGGAGGAAT”, the “cleaved RNA product abundance” value [2] was 0.265.
For “ACAGACGAAGGAGCCGCAAAGAAGTTATTAAGGGATGAATAATCCCTCAATACAAATACCTCTCACTTATTTAAA”, the “cleaved RNA product abundance” value [1] was 0.0316.
“ACAGACGAAGGAGCCGCAAAGAAGTTATTAAGTGATGAATAATGCCTCAATATAAATATCTCTCACTTATTTAAA” was tested, and the “cleaved RNA product abundance” value [3] was 0.1.
“ACAGACGAAGGAGCCGCAAAGAAGTTATTAAGGGAAGACTAATCCCTCAATATAAATATCTCTCACTTATTTAAA” was tested, and the “cleaved RNA product abundance” value [1] was 0.452.
In the case of “CGACATGTCCCGCTTCTTTCATTAATCCGTTACCAACTGTTTTTCTATATACATTTACCTTTTAAGAGGAGGAAT”, the “cleaved RNA product abundance” value [2] is reported as 0.234.
For “ACAGACGAAGGAGCCGCAAAGAATTCATTAAGGGATGAATAATCCCTCAATATAAATATCTCTCACTTATTTAAA”, the “cleaved RNA product abundance” value [3] was 0.196 and the “cleaved RNA product abundance” value [1] was 0.23.
“CGACATGTCCCGCTTCTTTCATTATTCCGTTAGCAACTGTTTTGGTATATACATTTACCTTTTAAGAGGAGGAAT” was tested, and the “cleaved RNA product abundance” value [2] was 0.304.
For “CGACATGTCCCGCTTCTTTCATTAATCCGTTAGCAACTGATTTACTATATACATTTACCTTTTAAGAGGAGGAAT”, the “cleaved RNA product abundance” value [2] was 0.502.
For “ACAGACGAAGGAGCCGCAAAGATGTTATTAAGGGATGAATAATCCCTGAATATAAATATCTCTCACTTATTTAAA”, the “cleaved RNA product abundance” value [1] was 0.628.
In the case of “CGACATGTCCCGCTTCTTTCATTAATCCGTTAGCAATTGTTTTGCTATATACATTTACCTTTTAAGAGGAGGAAT”, the “cleaved RNA product abundance” value [2] is reported as 1.24.
With “ACAGACGAAGGAGCCGCAAAGAAGTTATTAAGGGATAAATAATCCCTCAATATAAATATCTCTCACTTATTTAAA” the “cleaved RNA product abundance” value [3] was 0.898, the “cleaved RNA product abundance” value [1] was 0.872 and the “cleaved RNA product abundance” value [4] was 0.954.
With “ACAGACGAAGGAGCCGCAAAGAAGTTATTAAGAGATGAATAATACCTCAATATAAATATCTCTCACTTATTTAAA” the “cleaved RNA product abundance” value [3] was 0.106 and the “cleaved RNA product abundance” value [1] was 0.109.
In the case of “CGACATGTCCCGCTTCTTTCATTAATCCGTTAGCAACTGTTTTGCTATATACATTTACATTTTAAGAGGAGGAAT”, the “cleaved RNA product abundance” value [2] is reported as 1.39.
For “ACAGACGAAGGAGCCGCAAAGAAGTAATTAAGGGACGAATAATCCCTCAATATAAATATCTCTCACTTATTTAAA”, the “cleaved RNA product abundance” value [3] was 0.139 and the “cleaved RNA product abundance” value [1] was 0.175.
“ACAGACGAAGGAGCCGCAAATAAGTTATTAAGGGATGCATAATCCCTCAATATAAATATCTCTCACTTATTTAAA” was tested, and the “cleaved RNA product abundance” value [1] was 1.1.
In the case of “ACAGACGAAGGAGCCGCAAAGAAGTTGTTAAGGGAAGAATAATCCCTCAATATAAATATCTCTCACTTATTTAAA”, the “cleaved RNA product abundance” value [1] is reported as 0.246.
With “ACAGACGAAGGAGCCGCAAAGAAGTTATTACGAGATGAATAATCCCTCAATATAAATATCTCTCACTTATTTAAA” the “cleaved RNA product abundance” value [3] was 0.104 and the “cleaved RNA product abundance” value [1] was 0.113.
In the case of “CGACATGTCCCGCTTCTTTCATTAATCCGTTAGCAAGTGTTTTTCTATATACATTTACCTTTTAAGAGGAGGAAT”, the “cleaved RNA product abundance” value [2] is reported as 0.603.
For “CGACATGTCCCGCTTCTTTCATTAATCCATTAGCAACTGTTTTGCTATAGACATTTACCTTTTAAGAGGAGGAAT”, the “cleaved RNA product abundance” value [2] was 0.532.
With “ACAGACGAAGGAGCCGCAAAGATGTTATTAAGGGATGAATAATTCCTCAATATAAATATCTCTCACTTATTTAAA” the “cleaved RNA product abundance” value [1] was 0.89.
“ACAGACGAAGGAGCCGCAAAGAAGTTCTTAAGGGATGAATAATACCTCAATATAAATATCTCTCACTTATTTAAA” was tested, and the “cleaved RNA product abundance” value [1] was 0.14.
“ACAGACGAAGGAGCCGCAAAGAAGTTATTAAGGGATGAATACTCCGTCAATATAAATATCTCTCACTTATTTAAA” was tested, and the “cleaved RNA product abundance” value [1] was 0.126.
“ACAGACGAAGGAGCCGCAAAGAATTTATTAAGGGATGAATAATCCCTCATTATAAATATCTCTCACTTATTTAAA” was tested, and the “cleaved RNA product abundance” value [3] was 0.278 and the “cleaved RNA product abundance” value [1] was 0.377.
